Experimental data published in patent publication US12714749B2, “Anti-CK8 antibody and exosome compositions, methods of making, and methods of treating” (PEAK WAY GROUP INC., priority 2022, dated 2026).
Read-outs that look alike come from different tables or passages of the source. Values belong to the molecule of their own block, whether it stands above or below them.

Assays:
MCF-7/MX cells = test: SRB method, sensitivity of cells to chemotherapy drugs; format: cell-based; conditions: Homo sapiens, MCF7/MX, read-out: IC50 of chemotherapy drug
Description: The SRB method was used to detect the sensitivity of cells to chemotherapy drugs: 800 μg/L mitoxantrone was added in the process of culturing MCF-7/MX cells to maintain drug resistance, and the drug administration stopped two weeks before experiment. 100 μg/mL CK8-1R5 monoclonal antibody and/or 100 μg/mL BCRP inhibitor KS176 (Bai Olette, product No.: M01428) were added into cell culture wells of MCF-7/MX cells, and the culture medium was added for blank control. After 24 hours of culture, digestive cells were inoculated into a 96-well plate, with 2000 cells/well, and 3 double wells. The cells were continued to be cultured for 24 h until complete adherence. After adding different concentrations of chemotherapy drugs (mitoxantrone, topotecan, and daunorubicin) to act for 48 h, the culture was terminated. 50 IA of pre-cooled 50% (mass/volume) trichloroacetic acid was added into each well for immobilizing cells, and the culture plate was transferred into a refrigerator at 4° C. after standing for 1 h; the culture plate was taken, each well was washed with deionized water 5 times to remove TCA, and then dried in air; after complete drying, 100 μl of 0.4% SRB prepared with 1% acetic acid was added into each well and stained for 30 min at room temperature, and then the solution in each well was discarded; the well was washed 5 times using 1% acetic acid to remove unbound dye, and dried in air; 150 μl of 10 mM Tris alkaline solution with pH 10.5 was used for dissolving the sample in each well, the sample was oscillated for 5 min on a flat oscillator, and the absorbance of each well at 490 nm was measured on a BioRad microplate reader. The IC50 value was calculated using Prism software.

CK8 protein [1] = biological target: T1, CK8 protein (Homo sapiens, UniProt P05787); test: Indirect ELISA titer of monoclonal antibody; format: binding
T1 construct: made in house; host or cells: E. coli BL21 (DE3), vector pET-28a(+)
T1 sequence (P05787 1-483): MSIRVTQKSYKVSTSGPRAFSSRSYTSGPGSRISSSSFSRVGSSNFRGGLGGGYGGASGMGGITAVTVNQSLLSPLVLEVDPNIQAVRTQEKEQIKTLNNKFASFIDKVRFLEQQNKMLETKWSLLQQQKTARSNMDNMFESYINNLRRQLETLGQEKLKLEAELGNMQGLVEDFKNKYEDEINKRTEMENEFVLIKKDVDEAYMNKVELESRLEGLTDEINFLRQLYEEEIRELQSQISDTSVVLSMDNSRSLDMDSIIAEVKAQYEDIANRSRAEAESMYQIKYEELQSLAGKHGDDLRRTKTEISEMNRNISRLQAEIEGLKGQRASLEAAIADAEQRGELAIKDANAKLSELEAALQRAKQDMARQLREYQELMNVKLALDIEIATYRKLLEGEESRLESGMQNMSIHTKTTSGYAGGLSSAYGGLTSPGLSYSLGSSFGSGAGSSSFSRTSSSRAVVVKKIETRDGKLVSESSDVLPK
Description: The titer of monoclonal antibodies was determined using an indirect ELISA method. An ELIASA plate (100 μl/well) was coated with […] of purified recombinant CK8 protein overnight at 4° C., and sealed for 1 h at 10% BSA room temperature. Different concentrations of CK8-1R5 monoclonal antibodies subjected to multiple dilution were added respectively, and incubated at 37° C. for 1 h. After washing 3 times with 0.05% PBST, HRP labeled sheep anti-mouse IgG with a dilution of 1:2000 was added, and the obtained mixture was incubated at 37° C. for 1 h and then washed. A developing agent ABTS was added, and the absorbance (A) value at a wavelength of 405 nm was read on microplate reader. Simultaneously, SP2/0 myeloma cell culture supernatant was used as negative control. The highest dilution ratio of the sample that produces a positive reaction was used as its potency.

MCF7/MX cells = test: Tumor growth in mice subcutaneously inoculated with MCF7/MX cells; format: in vivo; conditions: after 14 days of administration; FIG. 4
Description: MCF-7 was selected as a source cell of a tumor exosome, and the culture medium was DMEM with 10% Fetal bovine serum. After being transferred to a cell incubator (37° C. constant temperature, volume fraction, 5% CO2) for 48 h, the supernatant of tumor cells was collected and gradient centrifuged (2000×g, centrifuge, 20 min, 10000×g, centrifuge for 30 min) to remove cell debris, large vesicles were removed using a 0.22 μm filter; the filtrate was centrifuged for 70 min at 100000×g, the supernatant was discarded and then resuspended with 100 μL of DPBS at the bottom of a centrifuge tube, and the exosomes were recovered and stored at […] in refrigerator for future use. […]
After the inguinal areas of mice were subcutaneously inoculated with 5×10^5 MCF7/MX cells for 7 d, tumor bearing mice were randomly divided into 5 groups according to random number table: blank control group, exosome group loaded with erythromycin, exosome group loaded with CK8-1R5 monoclonal antibody combined with erythromycin, CK8-1R5 monoclonal antibody group, and erythromycin group. […] After 14 days of the first administration, the mice were euthanized and the tumor volume=short diameter^2×Long diameter/2 was measured[…].

CK8 protein [2] = biological target: T1, CK8 protein; test: Specificity identification by ELISA; format: binding; conditions: plate coated with CK8 protein, MCF7 cell lysate, BSA, Escherichia coli lysate, NIH3T3 lysate; FIG. 3
Description: Specificity identification: each 1 μg of CK8 protein, MCF7 cell lysate, BSA, Escherichia coli lysate and mouse fibroblast NIH3T3 lysate was used to coat the ELISA plate, with PBS wells as blank control. After washing with PBS, 2.5% skimmed milk was added and the plate was sealed at room temperature for 1 h. After washing with PBS, 1:10 diluted cell culture supernatant (monoclonal antibody, primary antibody) was added, the plate was incubated at 37° C. for 1 and washed with 0.05% PBST 3 times, 1:2000 diluted HRP labeled sheep anti-mouse IgG (second antibody) was added, washed after incubation at 37° C. for 1 h, a developing agent ABTS was added, and the absorbance (A) value at 405 nm wavelength was read on the microplate reader.

CK8 protein [3] = biological target: T1, CK8 protein; test: Binding ability test (antibody on aminopropyl sensor, spectral phase difference); conditions: fit from binding and dissociation phase difference; read-out: affinity for CK8 protein
Description: Binding ability test: 1 mg of CK8-1R5 monoclonal antibody was taken and dispersed into 1 mL of PBS buffer solution; the prepared antibody dispersion was immobilized on an aminopropyl sensor, the sensor immobilized with the antibody was balanced in PBS buffer and then interact with different concentrations of CK8 protein solutions respectively, and then the spectral phase difference caused by CK8 protein binding to the antibody was recorded. After binding equilibrium, the sensor was placed in PBS buffer, the spectral phase difference caused by protein dissociation from the antibody was recorded, and the antibody's affinity to the protein was fit based on the phase difference.

[4] = MCF-7/MX cells without inhibitor, drug 48 h

IC50 (MCF-7/MX cells; [4]): 18 ± 1.34 µM
Molecule: CC[C@@]1(O)C(=O)OCc2c1cc1n(c2=O)Cc2cc3c(CN(C)C)c(O)ccc3nc2-1 [Topotecan, topotecan]

Molecule: COc1cccc2c1C(=O)c1c(O)c3c(c(O)c1C2=O)C[C@@](O)(C(C)=O)C[C@@H]3O[C@H]1C[C@H](N)[C@H](O)[C@H](C)O1 [Daunorubicin, daunorubicin]
IC50 (MCF-7/MX cells; 48 h): 0.431 ± 0.0102 µM

Molecule: O=C1c2c(O)ccc(O)c2C(=O)c2c(NCCNCCO)ccc(NCCNCCO)c21 [Mitoxantrone, mitoxantrone]
IC50 (MCF-7/MX cells; [4]): 25 ± 1.35 µM

absorbance (A) value at 405 nm (CK8 protein [1]; antibody dilution 1:400): 1.679 | absorbance (A) value at 405 nm (CK8 protein [1]; antibody dilution 1:800): 1.136 | absorbance (A) value at 405 nm (CK8 protein [1]; antibody dilution 1:1600): 0.821 | absorbance (A) value at 405 nm (CK8 protein [1]; antibody dilution 1:3200): 0.596 | absorbance (A) value at 405 nm (CK8 protein [1]; antibody dilution 1:6400): 0.284 | Kd (CK8 protein [3]): 0.00633 µM
B1: CK8-1R5: mouse monoclonal antibody (IgG1) specifically binding to CK8; heavy chain variable region SEQ ID NO: 1, light chain SEQ ID NO: 2 (antibody, V domains shown)
VH: EVQLVESGGGLVQPGGSLRLSCAASGFSLSIPYIYWVRQAPGKGLEWVGAQGCGNFYLGWFGVMSRFTISKDNSKNTLYLQMNSLRAEDTAVYYCARFYGMVEIEHVEDVWGQGTLVTVSS
VL: AYQMTQSPSSVSASVGDRVTITCVQPKPHPMCRKWYQQKPGKAPKLLIYMQKDQDNGVPSRFSGSGSGTDFTLTISSLQPEDFATYYCFFPRSRTVCDPKEFGGGTKVEIK
modifications: Glu Val Gln Leu Val Glu Ser Gly Gly Gly Leu Val Gln Pro Gly Gly Ser Leu Arg Leu Ser Cys Ala Ala Ser Gly Phe Ser Leu Ser Ile Pro Tyr Ile Tyr Trp Val Arg Gln Ala Pro Gly Lys Gly Leu Glu Trp Val Gly Ala Gln Gly Cys Gly Asn Phe Tyr Leu Gly Trp Phe Gly Val Met; The amino acid sequence of the present application is artificially synthesized
tumor volume difference versus blank control group (MCF7/MX cells): no statistically significant difference (P>0.05) | specificity of binding (CK8 protein [2]): only binds to CK8 protein or MCF7 cell lysate expressing the CK8 protein
